Test results reported in the RNAGym collection of RNA variant scans (doi:10.1073/pnas.2313332121).

B1: TPR t1 (parent)
chain: GACCAAUCUGCCCUCAGAGCUCGAGAACAUCUUCGGAUGCAGAGGAGGCAGGCUUCGGUGGCGCGAUAGCGCCAACGUCCUCAACCUCCAAUGCAUCCCACCACAUGAUGAUGCCUGAAGAGCCUUGGUUUUUUG

Variants of: B1
Experiment: polymerase ribozyme fitness, log enrichment relative to wild type (log ratio); higher = more active; in vitro selection for triplet polymerase activity
How it was run: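 A heterodimeric triplet polymerase ribozyme had each of its subunits mutagenized by PCR into a library, which was transcribed. One round of in vitro selection, done in triplicate, annealed each library with a biotinylated primer, its partner subunit and triplets, then incubated it frozen at −7 °C before gel excision of extended constructs, streptavidin-bead capture and RT-PCR. Fitness is the logarithm of genotype enrichment relative to wild-type enrichment, based on Illumina sequencing of inputs and outputs and inverse-variance-weighted replicate averages. A base-2 logarithm is used, and genotypes were kept only with ≥10 input reads and ≥1 read per output.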

Variant | polymerase ribozyme fitness (log ratio)
GACCAAUCUGCCCUCAGAGCUCGAGAACAUCUUCGGAUGCAGAGGAGGCAGGCGUCGGUGGCCCGAUAGUGCCAACGUCCUCAACCUCCAAUGCAUCCCACCACAUGAUGAUGCCUGAAGAGCCUUGGUUUUUUG [U54G G63C C70U] | -1.73
GACCAAUCUGCCCUCAGAGCUCGAGAACAUCUUCGGAUGCAGAGGAGGCAGGCGUCGGUGGCGCGAUAGCGCCAACGUCCUCAACCUCCAAUGCAUCCCACCACAUGAUGAUGCUUGAAGAGCCUUGGUUUUUUG [U54G C115U] | -0.94
GACCAAUCUGCCCUCAGAGCUCGAGAACAUCUUCGGAUGCAGAGGAGGCAGGCGUCGGUAGCGCGAUAGCGCCAACGUCCUCAACCUCCAAUGCAUCCCACCACAUGAUGAUGCCUGAAGAGCCUUGGUUUUUUG [U54G G60A] | -4.1
GACCAAUCUGCCCUCAGAGCUCGAGAACAUCUUCGGAUGCAGAGGAGGCAGGCGUCGGUGGCGCGAUAGCGGCAACGUCCUCAACCUCCAAUGCAUCCCACCACAUGAUGAUGCCUGAAGAGCCUUGGAUUUUUG [U54G C72G U129A] | -2.34
GACCAAUCUGCCCUCAGAGCUCGAGAACAUCUUCGGAUGCAGAGGAGGCAGGCGUCGGUGGCGCGAUAGCGCCAACGUCCUCAACCUCCAAUGCAUUCCACCACAUGAUGAUGCCUGAAGAGCCUUGGUUUUUUG [U54G C97U] | -0.558
GACCAAUCUGCCCUCAGAGCUCGAGAACAUCUUCGGAUGCAGAGGAGGCAGGCGUCGGUGGCGCGAUAGCGUCAACGUCCUCAACCUCCAAUGCAUUCCACCACAUGAUGAUGCCUGAAGAGCCUUGGUUUUUUG [U54G C72U C97U] | -0.381
GACCAAUCUGCCCUCAGAGCUCGAGAACAUCUUCGGAUGCAGAGGAGGCAGGCGUCGGUGGCCCGAUAGCGCCAACGUCCUCAACGUCCAAUGCAUCCCACCACAUGAUGAUGACUGAAGAGCCUUGGUUUUCUG [U54G G63C C86G C114A U133C] | -3.86
GACCAAUCUGCCCUCAGAGCUCGAGAACAUCUUCGGAUGCAGAGGAGGCAGGCGUCGGUGGCGCGAUAGCGCCAACGUCCUCAACCUCAAAUGCAUCCCACCACAAGAUGAUGCCUGAAGAGCCUUGGUUUUUUG [U54G C89A U106A] | -2.52
GACCAAUCUGCCCUCAGAGCUCGAGAACAUCUUCGGAUGCAGAGGAGGCAGGCGUCGGUGGCGCGAUAGCGUCAACGUCCUCAACCUCCAAUGCAUCCCACCACAUGAUGAUGCCUGAAGAGCCUUGGCUUUUUG [U54G C72U U129C] | -0.965
GACCAAUCUGCCCUCAGAGCUCGAGAACAUCUUCGGAUGCAGAGGAGGCAGGCGUCGGUGGCGCGAUAGCGCCAACGUCCUCAAGCUCCAAUGCAUCCCACCACAUGAUGAUCCCUGCAGAGCCUUGGUUUUUUG [U54G C85G G113C A118C] | -4.79
GACCAAUCUGCCCUCAGAGCUCGAGAACAUCUUCGGAUGCAGAGGAGGCAGGCGUGGGUGGCGCGAUAGCGCCAACGUCCUCCACCUCCAAUGCAUCCCACCACAUGAUGAUGCCUGAAUAGCCUUGGUUUUUUG [U54G C56G A83C G120U] | -1.88
GACCAAUCUGCCCUCAGAGCUCGAGAACAUCUUCGGAUGCAGAGGAGGCAGGCGUCGGUAGCGCGAUAGCGCCAACGUCCUCAACCACCAAUGCGUCCCACCACAUGAUCAUGCCUGAAGAGCCUUGGUUUUUUG [U54G G60A U87A A95G G110C] | -6.6
GACCAAUCUGCCCUCAGAGCUCGAGAACAUCUUCGGAUGCAGAGGAGGCAGGCGUCGGUGACGCGAUAGCGCCAACGUCCUCAACGUCCAAUGCAUCCCACCACAUGAUGAUGCCUGAAGAGCCUUGGUUUUUUG [U54G G61A C86G] | -5.3
GACCAAUCUGCCCUCAGAGCUCGAGAACAUCUUCGGAUGCAGAGGAGGCAGGCGUCGGUGGCGCGAUAGCGCCAACGUCCUCAAACUCCAAUGCAUCCCACCACAUGAUGAUGCCUGAAGAGCCUUGGUUUUUUG [U54G C85A] | -1.99
GACCAAUCUGCCCUCAGAGCUCGAGAACAUCUUCGGAUGCAGAGGAGGCAGGCGUCGGUGGCGCGAUAGCGCCAACGUCCUAAACCUCCAAUGGAUCCCACCACAUGAUGAUGCCUGAAGAGCUUUGGUUUUUUG [U54G C82A C94G C124U] | 0.658
GACCAAUCUGCCCUCAGAGCUCGAGAACAUCUUCGGAUGCAGAGGAGGCAGGCGUCGGUGGAGCGAUAGCGCCAACGUCCUCAACCUCCAAUGCCUCCCACCACAUGAUGAUGCCUGAAGGGCCUUGGUUUUUUG [U54G C62A A95C A121G] | -6.12
GACCAAUCUGCCCUCAGAGCUCGAGAACAUCUUCGGAUGCAGAGGAGGCAGGCGUCGGUGGCGCGAUAGCGCCAACGUCCUAAACCUCCAAUGCAUCCCACCACAUGAUGAUGCCUGAAUAGCCUUGGUUUUUUG [U54G C82A G120U] | -0.425
GACCAAUCUGCCCUCAGAGCUCGAGAACAUCUUCGGAUGCAGAGGAGGCAGGCGUAGGUGGCGCGAUAGCGCCAACGUCCUCAACCUCCAAUGCAUCCCACCACAUGAUGAUGCCUGAAGAGCCUUGGUUUUUUG [U54G C56A] | -1.48
GACCAAUCUGCCCUCAGAGCUCGAGAACAUCUUCGGAUGCAGAGGAGGCAGGCGUCAGUGGCGCGAUAGCGGCAACGUCCUCAACCUCCAAUGCAUCCCACCACAUGAUGAUGUCUGAAGAGCCUUGGUUUUUUG [U54G G57A C72G C114U] | -5.48
GACCAAUCUGCCCUCAGAGCUCGAGAACAUCUUCGGAUGCAGAGGAGGCAGGCGUCGGUGGCGCGAUAGCGCCAACGUCCUCAACCUCCAAUGCAUCCCACCACAUGAUGAUGCCUGAAGAGCUUUGGUUUUUUG [U54G C124U] | 1.5
GACCAAUCUGCCCUCAGAGCUCGAGAACAUCUUCGGAUGCAGAGGAGGCAGGCGUCGGUGGCGUGAUAGCGCCAACGUCCUCAACCUCCAAUGCAUCCCACCACAUGAUGAUGCCUGAAGAGCCUUGGUUUUUUG [U54G C64U] | -3.4
